Test results published in patent US20240270821A1, “GIP/GLP1/GCG TRI-RECEPTOR AGONISTS AND USES THEREOF” (priority 2023, published 2024).

T1: human GIP receptor (human) (UniProt P48546)
T1 sequence (looked up): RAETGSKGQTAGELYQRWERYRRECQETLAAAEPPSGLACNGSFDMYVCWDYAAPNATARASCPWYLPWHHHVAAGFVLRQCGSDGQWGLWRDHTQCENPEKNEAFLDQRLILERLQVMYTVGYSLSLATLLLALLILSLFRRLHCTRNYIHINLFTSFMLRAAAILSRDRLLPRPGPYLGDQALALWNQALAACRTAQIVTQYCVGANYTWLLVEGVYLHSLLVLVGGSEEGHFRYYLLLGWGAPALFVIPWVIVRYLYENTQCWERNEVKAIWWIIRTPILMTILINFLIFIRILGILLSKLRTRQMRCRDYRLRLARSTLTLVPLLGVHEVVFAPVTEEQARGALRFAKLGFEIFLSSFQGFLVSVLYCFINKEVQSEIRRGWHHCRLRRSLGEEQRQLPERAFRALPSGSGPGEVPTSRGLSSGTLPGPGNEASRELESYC

B1: Example 623 (peptide)
chain: YXQGTXTSDXSIXLDKKAQXAFIEYLEEGGPSSGAPPPSGEGE
modifications: C-terminal amide; lysine acylated with (γ-Glu)2-C18 diacid; synthetic construct; SITE 2: note = 2-Aminoisobutyric Acid; SITE 6: note = alpha-methyl-2-fluoro-L-phenylalanine; SITE 10: note = 3-(4-Pyridyl)-L-alanine; SITE 13: note = alpha-methyl-leucine; SITE 17: note = Lysine is chemically modified through conjugation of the epsilon-amino group of the Lysine
B2: Example 631 (peptide)
chain: YXQGTXTSDXSIXLDKKAQXAFIEYLAEGGPSSGEPPPSGSEE
modifications: non-natural residues; acylated Lys; C-terminal amide; synthetic construct; SITE 2: note = 2-Aminoisobutyric Acid; SITE 6: note = alpha-methyl-2-fluoro-L-phenylalanine; SITE 10: note = 3-(4-Pyridyl)-L-alanine; SITE 13: note = alpha-methyl-leucine; SITE 17: note = Lysine is chemically modified through conjugation of the epsilon-amino group of the Lysine
B3: Example 610 (peptide)
chain: YXQGTXTSDXSILLDKKAQXAFIEYLEEGGPSSGAPPPSGSEE
modifications: Aib, αMeF(2F), 4Pal; lysine acylated C18 diacid; amide; synthetic construct; SITE 2: note = 2-Aminoisobutyric Acid; SITE 6: note = alpha-methyl-2-fluoro-L-phenylalanine; SITE 10: note = 3-(4-Pyridyl)-L-alanine; SITE 17: note = Lysine is chemically modified through conjugation of the epsilon-amino group of the Lysine side chain with (gamma-Glu)2-CO-(CH2)1
B4: Example 618 (peptide)
chain: YXQGTXTSDXSILLDKKAQXAFIEYLEEGGPSSGAPPPSGSGE
modifications: non-natural residues, C18 diacid acylation, C-terminal amide; synthetic construct; SITE 2: note = 2-Aminoisobutyric Acid; SITE 6: note = alpha-methyl-2-fluoro-L-phenylalanine; SITE 10: note = 3-(4-Pyridyl)-L-alanine; SITE 17: note = Lysine is chemically modified through conjugation of the epsilon-amino group of the Lysine side chain with (gamma-Glu)2-CO-(CH2)1
B5: Example 611 (peptide)
chain: YXQGTXTSDXSILLDKKAQXAFIEYLEEGGPSSGAPPPSGEEE
modifications: non-natural residues; Lys acylated C18 diacid; C-terminal amide; synthetic construct; SITE 2: note = 2-Aminoisobutyric Acid; SITE 6: note = alpha-methyl-2-fluoro-L-phenylalanine; SITE 10: note = 3-(4-Pyridyl)-L-alanine; SITE 17: note = Lysine is chemically modified through conjugation of the epsilon-amino group of the Lysine side chain with (gamma-Glu)2-CO-(CH2)1
B6: Example 609 (peptide)
chain: YXQGTXTSDXSILLDKKAQXAFIEYLEEGGPSSGAPPPSGTEE
modifications: non-natural residues (Aib, αMeF(2F), 4Pal); lipidated Lys; C-amide; synthetic construct; SITE 2: note = 2-Aminoisobutyric Acid; SITE 6: note = alpha-methyl-2-fluoro-L-phenylalanine; SITE 10: note = 3-(4-Pyridyl)-L-alanine; SITE 17: note = Lysine is chemically modified through conjugation of the epsilon-amino group of the Lysine side chain with (gamma-Glu)2-CO-(CH2)1
B7: Example 624 (peptide)
chain: YXQGTXTSDXSIXLDKKAQXAFIEYLEEGGPSSGEPPPSGTGE
modifications: non-natural residues; lipidated Lys; C-terminal amide; synthetic construct; SITE 2: note = 2-Aminoisobutyric Acid; SITE 6: note = alpha-methyl-2-fluoro-L-phenylalanine; SITE 10: note = 3-(4-Pyridyl)-L-alanine; SITE 13: note = alpha-methyl-leucine; SITE 17: note = Lysine is chemically modified through conjugation of the epsilon-amino group of the Lysine
B8: Example 621 (peptide)
chain: YXQGTXTSDXSILLDKKAQXAFIEYLEEGGPSSGAPPPSGEGE
modifications: non-natural residues, lysine acylation, C-terminal amide; synthetic construct; SITE 2: note = 2-Aminoisobutyric Acid; SITE 6: note = alpha-methyl-2-fluoro-L-phenylalanine; SITE 10: note = 3-(4-Pyridyl)-L-alanine; SITE 17: note = Lysine is chemically modified through conjugation of the epsilon-amino group of the Lysine side chain with (gamma-Glu)2-CO-(CH2)1
B9: Example 620 (peptide)
chain: YXQGTXTSDXSILLDKKAQXAFIEYLEEGGPSSGAPPPSGAGE
modifications: Aib, αMeF(2F), 4Pal; acylated K; C-terminal amide; synthetic construct; SITE 2: note = 2-Aminoisobutyric Acid; SITE 6: note = alpha-methyl-2-fluoro-L-phenylalanine; SITE 10: note = 3-(4-Pyridyl)-L-alanine; SITE 17: note = Lysine is chemically modified through conjugation of the epsilon-amino group of the Lysine side chain with (gamma-Glu)2-CO-(CH2)1
B10: Example 625 (peptide)
chain: YXQGTXTSDXSIXLDKKAQXAFIEYLEEGGPSSGEPPPSGEGE
modifications: non-natural residues; lipidated Lys; C-terminal amide; synthetic construct; SITE 2: note = 2-Aminoisobutyric Acid; SITE 6: note = alpha-methyl-2-fluoro-L-phenylalanine; SITE 10: note = 3-(4-Pyridyl)-L-alanine; SITE 13: note = alpha-methyl-leucine; SITE 17: note = Lysine is chemically modified through conjugation of the epsilon-amino group of the Lysine
B11: Example 612 (peptide)
chain: YXQGTXTSDXSILLDKKAQXAFIEYLEEGGPSSGAPPPSGGEE
modifications: Aib, alpha-methyl-2F-Phe, 4Pal, lipidated Lys, amide; synthetic construct; SITE 2: note = 2-Aminoisobutyric Acid; SITE 6: note = alpha-methyl-2-fluoro-L-phenylalanine; SITE 10: note = 3-(4-Pyridyl)-L-alanine; SITE 17: note = Lysine is chemically modified through conjugation of the epsilon-amino group of the Lysine side chain with (gamma-Glu)2-CO-(CH2)1
B12: Example 619 (peptide)
chain: YXQGTXTSDXSILLDKKAQXAFIEYLEEGGPSSGAPPPSGGGE
modifications: non-natural residues; Lys acylated C18 diacid; C-terminal amide; synthetic construct; SITE 2: note = 2-Aminoisobutyric Acid; SITE 6: note = alpha-methyl-2-fluoro-L-phenylalanine; SITE 10: note = 3-(4-Pyridyl)-L-alanine; SITE 17: note = Lysine is chemically modified through conjugation of the epsilon-amino group of the Lysine side chain with (gamma-Glu)2-CO-(CH2)1
B13: Example 59 (peptide)
chain: YXQGTFTSDFSXXLDKKAQXAFIEYLLEGGPSSGEPPPSEG
modifications: synthetic construct; SITE 2: note = 2-Aminoisobutyric Acid; SITE 12: note = L-ornithine; SITE 13: note = alpha-methyl-leucine; SITE 17: note = Lysine is chemically modified through conjugation of the epsilon-amino group of the Lysine side chain with (2-[2-(2-Amino-ethoxy)-ethoxy]-acetyl)-(gamma-Glu)

What was measured:
Assay in all cases: cell-based or functional assay
[1] = molecular target: hGLP-1R (Homo sapiens, UniProt P43220)
[2] = molecular target: human glucagon receptor (human) (UniProt P47871)
[3] = molecular target: T1, human GIP receptor (human)

hGLP-1R, sequence (P43220 24-463): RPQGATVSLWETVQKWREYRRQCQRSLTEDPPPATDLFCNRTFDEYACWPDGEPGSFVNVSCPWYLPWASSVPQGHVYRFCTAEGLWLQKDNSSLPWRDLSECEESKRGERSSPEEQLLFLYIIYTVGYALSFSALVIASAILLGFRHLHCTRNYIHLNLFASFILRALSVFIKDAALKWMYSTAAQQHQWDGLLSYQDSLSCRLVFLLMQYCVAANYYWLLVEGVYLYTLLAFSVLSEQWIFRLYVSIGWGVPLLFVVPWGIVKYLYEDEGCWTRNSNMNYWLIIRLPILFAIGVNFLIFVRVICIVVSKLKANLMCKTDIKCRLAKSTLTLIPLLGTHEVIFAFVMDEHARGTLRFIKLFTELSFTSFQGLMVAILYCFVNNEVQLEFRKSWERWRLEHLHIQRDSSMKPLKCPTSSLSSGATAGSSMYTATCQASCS
human glucagon receptor (human), sequence (P47871 26-477): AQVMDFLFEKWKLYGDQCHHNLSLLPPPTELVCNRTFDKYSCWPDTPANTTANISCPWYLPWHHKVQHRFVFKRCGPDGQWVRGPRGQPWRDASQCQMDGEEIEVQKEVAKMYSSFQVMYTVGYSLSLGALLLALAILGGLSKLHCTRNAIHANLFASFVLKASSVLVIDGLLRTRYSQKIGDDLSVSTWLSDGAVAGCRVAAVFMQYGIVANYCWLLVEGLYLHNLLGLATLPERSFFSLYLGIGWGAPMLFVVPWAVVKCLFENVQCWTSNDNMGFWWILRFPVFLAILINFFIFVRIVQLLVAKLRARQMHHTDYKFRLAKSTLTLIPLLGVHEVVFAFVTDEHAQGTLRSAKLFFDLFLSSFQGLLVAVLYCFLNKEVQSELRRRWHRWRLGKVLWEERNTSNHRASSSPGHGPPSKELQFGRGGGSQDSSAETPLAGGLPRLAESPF

Binder	Relative cAMP EC50 [1] [nM]	cAMP Rel EC50 (in the presence of 1% HSA) [1] [nM]	Relative cAMP EC50 [2] [nM]	cAMP Rel EC50 (in the presence of 1% HSA) [2] [nM]	Relative cAMP EC50 [3] [nM]	cAMP Rel EC50 (in the presence of 1% HSA) [3] [nM]	cAMP Rel EC50, nM (in the presence of 1% HSA) [1] [nM]	cAMP Rel EC50, nM (in the presence of 1% HSA) [2] [nM]	cAMP Rel EC50, nM (in the presence of 1% HSA) [3] [nM]
B1	0.907	62.2	7.94	832	0.0224	1.48	–	–	–
B2	0.658	55	16.8	1250	0.0375	3.92	–	–	–
B3	1.66	130	5.75	536	0.133	7.02	–	–	–
B4	1.53	88.9	5.57	691	0.0418	4.63	–	–	–
B5	1.63	146	6.8	627	0.126	7.35	–	–	–
B6	1.07	121	6.46	647	0.0784	6.19	–	–	–
B7	0.95	63.4	8.42	808	0.0222	1.17	–	–	–
B8	1.28	111	6.81	901	0.0661	7.31	–	–	–
B9	0.981	90.7	8.26	665	0.0706	5.96	–	–	–
B10	1.16	72.1	8.53	657	0.0291	1.81	–	–	–
B11	1.21	126	7.13	640	0.087	7.58	–	–	–
B12	0.992	94	6.34	819	0.0685	6.78	–	–	–
B13	4.8	–	6.57	–	0.54	–	1370	2160	166
